The record followed here is patent US20140086927A1 (FUJITA HEALTH UNIVERSITY, published 2014).

In assay [1] the target is Fuk85HA39-319 (truncated HA on 293T cells) (Influenza A virus H3N2, …, UniProt P12589 39-319). Nature of the assay: flow cytometry on 293T cells expressing truncated HA. On the technique in general: Flow cytometry measures light scatter and fluorescence of single cells or particles in a stream.
The target of assay [2] is Fuk85HA44-309 (truncated HA on 293T cells) (Influenza A virus H3N2, …, UniProt P12589 44-309). The assay is described as above.

B1: F005-126 antibody (IgG) (antibody, V domains shown)
VH: QVQLVQSGAEVKKPGASVTVSCQVSGYTLTSYGLSWVRQAPGQGLEWVGWINTYDGQTKYVKKFQGRVTMTTHTGTNTAYMEMKSLRSDDTAVYYCARVEGVRGVMGFHYYPMDVWGQGTMVTVSS
VL: QSVLTQPPSVSGAPGQRVTISCTGSSSNIGAGYAVHWYQQLPGTAPKLLISGNSNRPSGVPDRFSGSKSGTSASLAITGLQAEDEADYYCQSYDSSLSGSVFGGGTKLTVLG
notes: also called F5126; F05126
As for B1, the results for the binding result in assay [1] and in assay [2] were “binds” and “no binding”, respectively.
